Results from US11994512B2, “Single-cell genomic methods to generate ex vivo cell systems that recapitulate in vivo biology with improved fidelity” (Massachusetts Institute of Technology, priority 2018, dated 2024).

B1: P56695 (protein, UniProt P56695 1-890, looked up)
chain: MNSGTPPPSPSGPPPPPAPQPQARARLNATASLEQDKIEPPRAPRPQADPSAGRSAGEAAAPEPRAPQTGSREETDRAGPMKADVEIPFEEVLEKAKAGDPKAQTEVGKHYLRLANDADEELNSCSAVAWLILAAKQGRREAVKLLRRCLADRKGITSENEAEVKQLSSETDLERAVRKAALVMYWKLNPKKKKQVAVSELLENVGQVNEQDGGAQPGPVPKSLQKQRRMLERLVSSESKNYIALDDFVELTKKYAKGIIPTNLFLQDEDEDEDELAGKSPEDLPLRQKVVKYPLHAIMEIKEYLIDVASKAGMHWLSTIVPTHHINALIFFFIISNLTIDFFAFFIPLVVFYLSFVSMVICTLKVFQDSKAWENFRTLTDLLLRFEPNLDVEQAEVNFGWNHLEPYIHFLLSVVFVIFSFPLASKDCIPCSELAVISTFFTVTSYMSLSSSAEPYTRRALVTEVAAGLLSLLPTVPVDWRFLKVLGQTFFTVPVGHFIILNVSLPCLLYVYLFYLFFRMAQLRNFKGTYCYLVPYLVCFMWCELSVVILLQSTGLGLVRASIGYFLFLFALPILVAGLALMGTVQFARWFLSLDLTKIMVTTVICGVPLLFRWWTKANFSVMGMVKSLTKSSMVKLILVWLTAILLFCWFYVYRSEGMKVYNSTLTWQQYGFLCGPRAWKETNMARTQILCSHLEGHRVTWTGRFKYVRVTEIDNSAESAINMLPFFLGDWMRCLYGEAYPSCSSGNTSTAEEELCRLKQLAKHPCHIKKFDRYKFEITVGMPFGTNGNRGHEEDDITKDIVLRASSEFKDVLLNLRQGSLIEFSTILEGRLGSKWPVFELKAISCLNCMTQLSPARRHVKIEQDWRSTVHGALKFAFDFFFFPFLSAA
modifications: full-length
B2: P70429 (protein, UniProt P70429 1-414, looked up)
chain: MSEQSICQARASVMVYDDTSKKWVPIKPGQQGFSRINIYHNTASSTFRVVGVKLQDQQVVINYSIVKGLKYNQATPTFHQWRDARQVYGLNFASKEEATTFSNAMLFALNIMNSQEGGPSTQRQVQNGPSPEEMDIQRRQVMEQQHRQESLERRISATGPILPPGHPSSAASTTLSCSGPPPPPPPPVPPPPTGSTPPPPPPLPAGGAQGTNHDESSASGLAAALAGAKLRRVQRPEDASGGSSPSGTSKSDANRASSGGGGGGLMEEMNKLLAKRRKAASQTDKPADRKEDESQTEDPSTSPSPGTRATSQPPNSSEAGRKPWERSNSVEKPVSSLLSRTPSVAKSPEAKSPLQSQPHSRVKPAGSVNDVGLDALDLDRMKQEILEEVVRELHKVKEEIIDAIRQELSGISTT
modifications: full-length
B3: P52800 (protein, UniProt P52800 1-336, looked up)
chain: MAMARSRRDSVWKYCWGLLMVLCRTAISRSIVLEPIYWNSSNSKFLPGQGLVLYPQIGDKLDIICPKVDSKTVGQYEYYKVYMVDKDQADRCTIKKENTPLLNCARPDQDVKFTIKFQEFSPNLWGLEFQKNKDYYIISTSNGSLEGLDNQEGGVCQTRAMKILMKVGQDASSAGSARNHGPTRRPELEAGTNGRSSTTSPFVKPNPGSSTDGNSAGHSGNNLLGSEVALFAGIASGCIIFIVIIITLVVLLLKYRRRHRKHSPQHTTTLSLSTLATPKRGGNNNGSEPSDVIIPLRTADSVFCPHYEKVSGDYGHPVYIVQEMPPQSPANIYYKV
modifications: full-length
B4: P60824 (protein, UniProt P60824 1-172, looked up)
chain: MASDEGKLFVGGLSFDTNEQALEQVFSKYGQISEVVVVKDRETQRSRGFGFVTFENIDDAKDAMMAMNGKSVDGRQIRVDQAGKSSDNRSRGYRGGSAGGRGFFRGGRSRGRGFSRGGGDRGYGGGRFESRSGGYGGSRDYYASRSQGGSYGYRSSGGSYRDSYDSYATHNE
modifications: full-length
B5: P63158 (protein, UniProt P63158 1-215, looked up)
chain: MGKGDPKKPRGKMSSYAFFVQTCREEHKKKHPDASVNFSEFSKKCSERWKTMSAKEKGKFEDMAKADKARYEREMKTYIPPKGETKKKFKDPNAPKRPPSAFFLFCSEYRPKIKGEHPGLSIGDVAKKLGEMWNNTAADDKQPYEKKAAKLKEKYEKDIAAYRAKGKPDAAKKGVVKAEKSKKKKEEEDDEEDEEDEEEEEEEEDEDEEEDDDDE
modifications: full-length
B6: P56395 (protein, UniProt P56395 1-134, looked up)
chain: MAGQSDKDVKYYTLEEIQKHKDSKSTWVILHHKVYDLTKFLEEHPGGEEVLREQAGGDATENFEDVGHSTDARELSKTYIIGELHPDDRSKIAKPSDTLITTVESNSSWWTNWVIPAISALAVALMYRLYMAED
modifications: full-length
B7: P55050 (protein, UniProt P55050 1-132, looked up)
chain: MAFDGTWKVDRNENYEKFMEKMGINVMKRKLGAHDNLKLTITQDGNKFTVKESSNFRNIDVVFELGVNFPYSLADGTELTGAWTIEGNKLIGKFTRVDNGKELIAVREVSGNELIQTYTYEGVEAKRFFKKE
modifications: full-length
B8: P81117 (protein, UniProt P81117 1-420, looked up)
chain: MRWRIIQVQYCFLLVPCMLTALEAVPIDVDKTKVHNTEPVENARIEPPDTGLYYDEYLKQVIEVLETDPHFREKLQKADIEEIRSGRLSQELDLVSHKVRTRLDELKRQEVGRLRMLIKAKLDALQDTGMNHHLLLKQFEHLNHQNPNTFESRDLDMLIKAATADLEQYDRTRHEEFKKYEMMKEHERREYLKTLSEEKRKEEESKFEEMKRKHEDHPKVNHPGSKDQLKEVWEETDGLDPNDFDPKTFFKLHDVNNDGFLDEQELEALFTRELEKVYNPQNAEDDMIEMEEERLRMREHVMSEIDNNKDRLVTLEEFLRATEKKEFLEPDSWETLDQQQLFTEDELKEYESIIAIQENELKKRAEELQKQKEDLQRQHDHLEAQKQEYHQAVQHLEQKKLQQGIAPSGPAGELKFEPHT
modifications: full-length

Test system: intracellular proteome of ENR+CD and ENR organoids
Test: LC-MS/MS TMT proteomics of ENR+CD versus ENR organoids
Assay type: cell-based, C57BL/6 mice
Conditions: for Average logFC / M1-1 Log2 Median Normalized / M1-2 Log2 Median Normalized / M2-1 Log2 Median Normalized / M2-2 Log2 Median Normalized: protein abundance, ENR+CD versus ENR organoids; for Average logFC: aggregate of the four sample pairs; for M1-1 Log2 Median Normalized: replicate M1-1; for M1-1 Log2 Median Normalized / M1-2 Log2 Median Normalized / M2-1 Log2 Median Normalized / M2-2 Log2 Median Normalized: log2 ratio; for M1-2 Log2 Median Normalized: replicate M1-2; for M2-1 Log2 Median Normalized: replicate M2-1; for M2-2 Log2 Median Normalized: replicate M2-2; for change: up = enriched in ENR+CD, down = enriched in ENR, FDR<0.05 and log fold change cut-off

| Molecule | Average logFC | M1-1 Log2 Median Normalized | M1-2 Log2 Median Normalized | M2-1 Log2 Median Normalized | M2-2 Log2 Median Normalized | change |
| --- | --- | --- | --- | --- | --- | --- |
| B1 | 1.149 | 1.527 | 0.901 | 0.7335 | 1.433 | up |
| B2 | 1.275 | 1.275 | 1.519 | 1.2085 | 1.206 | up |
| B3 | −1.24 | −0.883 | −1.258 | −1.7545 | −1.065 | down |
| B4 | 1.155 | 0.902 | 1.138 | 1.3145 | 1.267 | up |
| B5 | −1.338 | −1.875 | −1.062 | −1.2145 | −1.339 | down |
| B6 | −1.382 | −1.162 | −0.964 | −1.6925 | −1.71 | down |
| B7 | −1.721 | −1.558 | −2.656 | −2.1955 | −0.474 | down |
| B8 | 1.372 | 1.736 | 1.385 | 1.0905 | 1.276 | up |
